The values below come from the DeepSol protein solubility set.

This series in a line: soluble on expression in E. coli; label from the status in PepcDB or PDB records.
Regarding “MGSDKIHHHHHHMQVVYHLGAPCTDADQLIMSLLKNRLRLAQAGIFVPVPGRYRAVIRDTARALKGQPAGKEVQEALLDAIVDDAQVDRLVLSDPRFVCINRLVVQGAQIWPMIERAATGLRALFPEAHVEFFIGMRDPATLIPALFKASRFSDFAEFTENMQPHAVAWSETLRRLQLAHPDCRITAWCNEDTPLLWGEILRELAGVGPEGELDGINDLAVSIMEEEGLKRMGQWFGQNPPKTEAQRRRALTAFLERYAKAGEIEETLNLPGWDEALMAEMSQSYDQDMEVIARLPGVTLLVP”, the “soluble on expression in E. coli” value is “not soluble”. In the case of “MKIVIAPDSFKESLTAQQVAEAIKRGFQQSIADVECLLCPVGDGGEGTVDAIRHSLDLEEKCLQVTGSFGQKEVMRYFQKEQLALFEVADLVGLGKIPLEKRNPLQIQTRGIGELIRHLISQEIKEIYIGVGGTASNDGGIGIAAGLGYQFYDEDGNALPACGQSLLNLASVSTENRYKIPEDVHIRILADVVSPLCGHQGATYTFGKQKGLDSTMFEVVDQAIQDFYEKVSPATLKLKGAGAGGGIAGGLCAFAQASIVSGIDTCLDLIDFDKKVSDVDLVIVGEGRLDRQSLAGKAPIGVAKRTPVGVPVVAICGSLVEDLPSLPFENIQAAFSILEKSEPLEDSLKNASLYLEHTASNIGHLLNMPKI” it was “soluble”; in that of “MLASFLKLKTYCEQEGFKGWDPYDGLNSKVFRALPLLKQSALCRLIVIQGFKRSPINLRRLALVPKEYNAKGIGLFLQGYCNLYRLVERNPQLTKELGSREELLEQVKKLADLLLELRSPGDYSGACWGYNFDWQARRLFLFPKYTPTVVATNFCATALMEAYEVTRQQEYLDVALSAAQFVIKDLHRTAYRDGFLFSYSPLDGNDTVFNASLLGARLLSYCYHYTKDEAYRTLARQTISACCAAQAEDGSWVYGMLPVQSWIDSFHTGYNLDALIAYQELTGDISFAENIERGLSYYLEHFFEADGMPKYYHDRTYPIDIHCPGQLFVSLARLHRYDEHRELVDRVMAWTISSMQDKKGYFYYQMKPGLSSKIPYMRWSNAFMFCAMSYYLINYKEISGGDFSNDQ”, “not soluble”; in that of “MRKKLLSIALCATMVAGIFTGCGSSSDTSKKDEGKSADGKITLNVINYHVGTDYAADYYEYLFDAFKKTEEGKNVEFKFEEIPTTDAYNQKIKLLISSGDLPDIVLNGGNNITALAAKSGKVTDITEYLDKDPEWKAMFSDQDLEFNSYEGKVYGIPVSKEISYIYYNKDLFKKAGLEAPDVAYETWDDFYKACDTLKSKNITPVSMDTADLGWLSNLWYSGLIGTAGEEGNKFMNTMYPTDYTSDLVVNATEQLQKMLKNYTTSDAAGGKYDTMATHFFNSEVAMLPNGPWMIPDFKSTDKAPEGFYDKVGIMLLPGSGMESVPTPGDMVGTKDPEKVKAAVAFLKFETTAENQLKALEMAGLQPVSSNIEVPDSLKESDPLMAEVLDIQSKAKYTYGQNQAYWYQNVIDTFSTQLPELAYGNMTAKEFCQKLTDAAKKN”, “not soluble”. “MGKRVLIVDDAAFMRMMLKDIITKAGYEVAGEATNGREAVEKYKELKPDIVTMDITMPEMNGIDAIKEIMKIDPNAKIIVCSAMGQQAMVIEAIKAGAKDFIVKPFQPSRVVEALNKVSK”: the “soluble on expression in E. coli” value is “soluble”. In the case of “MGSDKIHHHHHHMDWTNIPPLYALKAFESAAKHQSFTLAASELFISQSAISKHINTIEIFFGRKLFYRKGPKVFLTKEGESFAGDLRHAFEILSKACENIHRAGIVLTISSPYTFSIRQFIPVLRKYKNQDGFPIVTVETINDDYSHSIVNLKNHDATVKYGDGKFSDEWNCTLLSPECLIVVVSPKLLHLFEKDNRILIDLVYVKSRELDWFSWCEESRLKERFQVINKYEFESMDSAINAVIKGLGVAVVDIGMVCDELMDGVLLTPFKFSFYSGRGYYFLRGGDDDNYLSSLLECVRLDLSGRGLAELCFNDKCDMGNCRLAATKKITK” it was “not soluble”; in that of “MKAIPSNVWATRPTKPFTCFFCPMIVLTEDGSPTILSPHYGEYYHSIHGACRESEHVFVHTGLLHRLESFDPSGTLYLFEVGFGTALNALLTLREQRCRGLSIHYSAIEKFPLERDVYEHLRFSVGMADEDKLLQSLHHAPWGMDCEICPGFTLHKIASDLTDFTFRKPIDLIYFDAFSPEAQPELWSEEIFIRMVAACRSGAVLATYCAKGEIRRRLTRAGFHMERLPGPPGKREILRGTYYLEDRGDSL”, “not soluble”. In the case of “MARLAAFDMDGTLLMPDHHLGEKTLSTLARLRERDITLTFATGRHALEMQHILGALSLDAYLITGNGTRVHSLEGELLHRDDLPADVAELVLYQQWDTRASMHIFNDDGWFTGKEIPALLQAFVYSGFRYQIIDVKKMPLGSVTKICFCGDHDDLTRLQIQLYEALGERAHLCFSATDCLEVLPVGCNKGAALTVLTQHLGLSLRDCMAFGDAMNDREMLVSVGSGFIMGNAMPQLRAELPHLPVIGHCRNQAVSHYLTHWLDYPHLPYSPE” it was “soluble”. In the case of “MKCIAIDDEPLALKQLTDYISRVPFLSLVKSCQDAFEAMKVLADEEIDLIFVDINMPDLNGLDFIRSLISRPMVVFTTAYSEYAVDGFKLDAVDYLLKPFEFQDLLKAADKARKQYEYRMLEQQGELGNSSQIKGDSLFVKSDYKVVRIDVKNIRYIEGMSEYVRIFIEGEDKPVITLASLQKMEERLPTYFMRVHRSYIVNLRKITEVSRLRIIFDRNTYIPVGDNYKERFAEHISKLSFS” it was “not soluble”. Turning to “MAHHHHHHMSSIKINKDESKRVHIWIKSAIGTPNRRQFKHKNIMYPYFRMYKSPYRARDSRTRQAFWPCVDKYPWHTHQKRWVDIEQLNLKFFSEFTNKDPSRKNLFETCHTLPFNGINCLFWNPIYLNSHKFFLKKNKKDANRGEDNNMEENDDVKENTIEGNDDVKEHAIEGYTNNNVNNHNDIINQYDENKKVIKINDFHYIVDKDVKNNTYFYLKYIKYSMRPFRGKLIGDIYLNQTKIRHNISAKGFVNGEWKYSYPHININKKIEHISLNNNLTSNDIYSNNINNLVIVDKYTYRPPLPKSYIFQKDIL”, the “soluble on expression in E. coli” value is “not soluble”. In the case of “MQTQQERISTGVKGLDELIEGGLIPGRVYLITGPPGSGKTTFGMQFLLEGARRGEKVAYISLIHKPEEVVRDMVRFDPSVYVYVNNWRLILYDLGPILWRESTKVPTWRSVLSRIREITENEKITRLVIDPLTAIDFPLQDPVEKRVELAKFVRSLENLGVTTYLIAEMVELDKYSEEHYLVSGIIMLHYFMHEGRMIRAIQIFKMRGTKHDPNLKLLKFTDQGLVVYNKSPFEVV” it was “soluble”. In the case of “NYKREIKQVENYLSARRESGHFIGKENIDIYYEKYVIPNSKNSIVISHGFRESMVKYNETIYYFLKNGYSVYGLEHRGHARSGRLGKDSTQTSVDNFDYYVDDFKKYVDTIVEPDNRGKNLFLYAHSMGGAIGGLFLERYPKYFKAAVLSSPMFEVDTGRYPEFLSRAVASVFNFVNLGDTYAPGHHEYSCESDFENSCTTSNIRYDYYLDKTNKSRKIENGGASFKWVKESLKATDEVTDGKNASKVTIPVLLFQAENDDIVRPGGQDKFAKEAKKCKLIVIKNSKHEIYREKDSIMVPYFNKVFTFLNNNK” it was “not soluble”; in that of “MSLKSIAKAQNDFTIFKFGDSEIRVINKCGEPWFVAKDVCDALALTNSRKALTALDDDEKGVTLSYTLGGEQNLSIVSESGMYTLVLRCRDAVNKGSVPHKFRKWVTAEVLPSIRKHGEYVKGKKTTVEERTPLRDAVNMLVGKKGLRNDDAYNMVHQRFGIDSIDELSIEQIPLAVEYIHRVVLEGEFIGKQEKSTNELSAKEANSLVWLWDYANRSQALFRELYPALKQIQSNYSGRCYDYGHEFSYVIGMARDVLINHTRDVDINEPDGPTNLSAWMRLKNKELPPSPHHYEGHHHHHH”, “not soluble”. Under “MSLSDKTMTADEAVSRLRSGMTLGIGGWGSRRKPMALVRALLRSGITDLTVVSCGGPDVGMLAAAGRIRKLVAAFVTLDSIPLEPHYRAARERGALELMEIDEAMFLWGLRAAAGRLPFLPVRAGIGSDVMRVNPGLRTITSPYVDGETFVAMPALRLDAALVHLNRADRLGNGQYLGPDPYFDDLFCEAADTAYVSCERVVDTAELTKEAAPQTLLVKRHTVTGVVEAPNGADFTSCVPDYGRDEALQRYYATTPWPEFAERFLGGGEPAYRSAVQDWRKEREGHHHHHH” stands “soluble”. On to “MTVQVFHTLFLTNDCGDHVVLINTREIALPGDEWVKRVYFHHTGYPGGASWTLAWQLHEKDPTMVMKKAVYNSMRGNLQRRHTMQRLHLFADDQVPEEILQNVTNQIRTPRSIPQRLDHIDKETLENFPNIMDYPKDYILRLEHHHHHH”, for which the “soluble on expression in E. coli” value is “not soluble”. In the case of “MFHAAFMEERVFSDRGSMRNACSSIEYDGCRQGQSGPLLEEKEVKRKLFGALALVAMLAAPALAEAATRGFATANVNMRSGPSTAYPAVVVIPVGAPLTVHGCLSDTPWCDVSFVNGRGWVAGRYIQTTFRQNRVYVEPRYYRDLGVPVITFEAGRYWDRYYRDRDFYRERDRWRRPPPSGGYWNAPPPSAGWDRPRPRDDWRDGRRDDGRRDEWRDPRQGGPNDGRWERRYGDWNQGDRNQDRPRRDDDRRRWEDENRDRNRDRDSNRDGNRDRPQNQYDGQRGQLEGQPRPPAPAPDAPLQGCIIGSPGCAQRLEHHHHHH” it was “soluble”; in that of “MKPRGICFFDMDGTLLNSESKVLDTSLQALDKLRENNVIPVIATGRTLIEISHQMKITGIESAVMMNGQMAIFEGEKVYEDVIDADLLDRLTEEAKSQNVEVCYYNDKRIGATASTPVVKAHYDFLGEPMPKVRPNMYKEETINMALLLLETGDDYFPERFPELQFVRNTPFSNDVLRKGGSKAVGISKLLEVMGYQDVPTYAFGDGMNDLEMFGAVDYAIAMENAVPLLKEKADFVTKDNNSDGIMLGLKQFDLI”, “not soluble”. In the case of “MSPRSPRHDKILQLVRENGFMPIEELARLLDVTPQTIRRDINQLCEANLLRRYHGGAALGNSVENEDYFARKGKFQSEKAHIADMIARSIPDHASLFMSIGTTIEAVAQALTATHKGLRVITNNIHVASIMSTNPDFTAMITSGTVRASDGGITGVATLDFINQFKVDYAIIGVSGIEPDGSLLDFDYREVRVAQAMMNNARHRYLAADHSKFGRNALVRMGHISEFHTVFTDAAPPEPVTKLLEEHNVRLVLSEALEHHHHHH” it was “soluble”. In the case of “MSLGFASQQEAVNDFWGWPSDESDKEAVEASIRKYANAIADTINKYGYDGFDIDYEPNYGNKGNIVDDDDRMFIFVDELGKHFGPKSGTGKLLIIDGEPQSIKNRPDVGPYFDYFIIQAYKPGNDNNLDKRLIDGGVAGPGLVQTYGSVMSEEQITKMTIMTENFEAVDAAMDGGYPYTDRYGNSMKSLEGMARWQPKNGFRKGGVGSYHMEAEYPTNPEYKNLRKAIQIMNPSTKPLIKYEGHHHHHH” it was “soluble”.

On to “MKFIQNLTKIHQSTSHMAHAHRSDSAVDSQVASTLREDTVARFSMLMKHPRSLARPTVTWRPPSLKLVGLHSTISPQPHLVASISRRRIGPSVKARLKGFGVRQQPAYLMSVRISDSKSNNVSFEHAEQWMLQLVGPQYAECIHMITDHGQCPVFVWIVGGDFQPLPSPASMFQTFQAAA”, for which the “soluble on expression in E. coli” value was “not soluble”.
